Results reported in the supplement of paper PMC11865577.

Assays:
Test in all cases: pull-down binding Z-score (relative to library population); higher = stronger binding
Conditions in all cases: RNA library: Library-2
[1] = tested on: TO-3-N3 (biotin conjugate)
How it was run: (§1)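 Streptavidin beads with 100 pmol of biotin-conjugated small molecule were incubated for 60 min at 25 °C with 1 μg of heat-folded Cy5- or Cy3-end-labelled RNA library in phosphate/NaCl/KCl buffer. Bound RNA was eluted in hot SDS after three washes and hybridised to a DNA barcode microarray at 55.5 °C for 20 h. Each binding score is a library-referenced Z-score, computed after beads-only subtraction and a trimmed mean of barcoded replicate probes.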

TO-N3 (biotin conjugate) = tested on: TO-N3 (biotin conjugate)
How it was run: as §1

[2] = tested on: TO-N3-2 (biotin conjugate)
How it was run: as §1

[3] = tested on: TO-3-N3-2 (biotin conjugate)
How it was run: as §1

Sequence	pull-down binding Z-score [1]	pull-down binding Z-score (TO-N3 (biotin conjugate))	pull-down binding Z-score [2]	pull-down binding Z-score [3]
AAAAACACCCAAGAAGUUUUU	-0.552	-0.802	-0.932	-0.458
AAAAAUCUUAGGGAAUUUGUGUUUAAGAAUAUUGAUGGUUAUUUUAAAAUAUAUUCUAAGCACACGCCUAUUAAUUUAGUGCGUGAUCUCCCUCAGGGUUUUU	-0.855	-0.959	-0.421	0.151
AAACCCGGUAAUUUUAACAAAGACUUCUAUGACUUUGCUGUGUCUAAGGGUUU [SHAPE_invivo_SARS-CoV-2_Motif_278]	-0.52	-0.677	-0.917	-0.338
AAACCUAAUGAAUUAUCUAGAGUAUUAGGUUU [SHAPE_invitro_SARS-CoV-2_Motif_132]	-0.888	-0.985	-1.06	-0.157
AAACGAACUAAAUAUUAUAUUAGUUUUUCUGUUU	-0.375	-0.211	-0.324	0.491
AAACUCAAACCCGUCCUUGAUUGGCUUGAAGAGAAGUUUAAGGAAGGUGUAGAGUUU	-0.653	-0.588	-0.346	0.119
AAACUUGUGCCCUUUUGGUGAAGUUUUUAACGCCACCAGAUUUGCAUCUGUUU [SHAPE_invivo_SARS-CoV-2_Motif_425]	-1.12	-1.3	-0.751	-0.449
AAAGGACUGGUAUGAUUUUGUAGAAAACCCAGAUAUAUUACGCGUAUACGCCAACUUAGGUGAACGUGUACGCCAAGCUUU	-0.541	-0.193	0.0415	-0.0434
AAAGUGCAGUGAAAAGAACAAUCAAGGGUACACACCACUGGUUGUUACUCACAAUUUUGACUUCACUUU	-0.381	-0.172	0.0106	-0.0864
AAAGUGCUUUUGUUAAUUUAAAACAAUUACCAUUUU [SHAPE_invivo_SARS-CoV-2_Motif_363]	-0.825	-1.18	-1.63	-0.408
AAAUAAGUACGAUACUUACCUG [U1snRNP5ss-3]	-0.109	-0.0474	0.324	0.279
AAAUAAGUAUGAUACUUACCUG [U1snRNP5ss-4]	-0.522	-0.506	-0.672	-0.0682
AAAUUACCAUUUCAUCUUUUAAAUGGGAUUU	0.204	-0.0633	-1.21	-0.151
AAAUUCUUGGAACUGUUUCUUGGAAUUU	-0.802	-1.22	-1.37	-0.163
AAAUUGCCGAUAAGUAUGUCCGCAAUUU	-0.317	-0.683	-1.13	-0.436
AAAUUUACAAAACACCACCAAUUAAAGAUUUUGGUGGUUUUAAUUU [DMSMaPseq_invitro_SARS-CoV-2_Motif_425]	1.34	1.06	-0.725	0.331
AAAUUUACAAGAAUUU [SHAPE_invivo_SARS-CoV-2_Motif_380]	-0.131	-0.556	-1.48	-0.556
AAAUUUUUGGCUUUGUGUGCUGACUCUAUCAUUAUUGGUGGAGCUAAACUUAAAGCCUUGAAUUU [SHAPE_invivo_SARS-CoV-2_Motif_45]	0.0535	-0.00867	-0.994	-0.123
AACAAAUGUGUCAAUUUCAACUUCAAUGGUUUAACAGGCACAGGUGUU	-0.698	-0.754	-0.968	-0.221
AACACCAGUUUACUCAUUCUUACCUGGUGUU	-0.56	-0.829	-1.46	-0.421
AACACUUCCCACAGAAGUGUU	-0.222	0.0543	-0.817	-0.407
AACAGCAGACAACCCUUAAGGGUGUAGAAGCUGUU	-0.872	-1.19	-0.918	-0.692
AACAGGAGUCACCUUUUGUU	-0.0743	-0.267	-0.716	-0.0265
AACAUUAACCUCCACACGCAAGUUGUGGACAUGUCAAUGACAUAUGGACAACAGUUUGGUCCAACUUAUUUGGAUGGAGCUGAUGUU	-1	-1.13	-0.533	-0.423

Sequence	pull-down binding Z-score [1]	pull-down binding Z-score (TO-N3 (biotin conjugate))	pull-down binding Z-score [2]	pull-down binding Z-score [3]
AACAUUUACUUAUGCAUCAGCAUUGUGGGAAAUCCAACAGGUUGUAGAUGCAGAUAGUAAAAUUGUU [DMSMaPseq_invitro_SARS-CoV-2_Motif_222]	0.159	-0.126	-0.134	-0.0746
AACCAGUUAACUGGUU [SHAPE_invivo_SARS-CoV-2_Motif_126]	0.328	0.00533	-1.24	-0.406
AACCAUACAGGUGUUGUUGGAGAAGGUU [DMSMaPseq_invitro_SARS-CoV-2_Motif_31]	0.0755	-0.0691	-0.444	0.125
AACCCUCACCUUAUGGGUU	-0.558	-0.946	-1.48	-0.745
AACGAACUUUAAAAUCUGUGUGGCUGUCACUCGGCUGCAUGCUUAGUGCACUCACGCAGUAUAAUUAAUAACUAAUUACUGUCGUU	-1.01	-0.781	-0.131	-0.0969
AACGGGGCGGGCCCUGGGCGGGGUAA [G4_2A2_VEGF-Pu22-mt2]	8.94	7.22	5.33	10.6
AACGGGGCGGGCCGGGGGCGGGGUAA [G4_2A2_VEGF-Pu22]	8.27	6.62	4.88	10.4
AACGGGGCGGGCCUCGGGCGGGGUAA [G4_2A2_VEGF-Pu22-mt3]	8.63	6.92	5.08	10.6
AACGGGGCGGGCCUGGGCGGGGUAA [G4_2A2_VEGF-Pu22-del]	8.83	7.15	5.22	11
AACGGGGCGGGCCUUGGGCGGGGUAA [G4_2A2_VEGF-Pu22-mt]	8.69	7.05	5.19	10.6
AACUACUAUUCAAACAAUUGUUGAGGUUCAACCUCAAUUAGAGAUGGAACUUACACCAGUUGUUCAGACUAUUGAAGUGAAUAGUUUUAGUGGUU	-0.295	-0.383	-0.981	-0.609
AACUGAAAGUAAACCUUCAGUU	-0.172	-0.401	-1.3	-0.384
AACUGCUUUUGGCUUAGUUGCAGAGUGGUU	-0.63	-0.115	-0.255	-0.132
AACUGGUAAUACACUUCAGUGUAUAAUGCUAGUU	-0.966	-1.55	-1.89	-0.418
AACUGUGAUGUUGUAAUAGGAAUUGUCAACAACACAGUU	-0.296	-0.618	-1	-0.0554
AACUUCUUAAGAGUGCUUAUGAAAAUUUUAAUCAGCACGAAGUU	0.425	-0.246	-0.771	0.972
AACUUUAAUGUU [SHAPE_invitro_SARS-CoV-2_Motif_263]	0.212	0.00196	-1.33	-0.765
AACUUUAGCUUGUUUUGUGCUUGCUGCUGUU	0.701	0.34	-0.708	-0.0892
AAGAAAGUUGAUGGUGUUGUCCAACAAUUACCUGAAACUUACUU [DMSMaPseq_invitro_SARS-CoV-2_Motif_358]	-1.04	-1.34	-1.44	-0.423
AAGAAGCUGCGCUGUGCACCUUUUU [DMSMaPseq_invitro_SARS-CoV-2_Motif_178]	-0.433	-0.0759	0.126	-0.354
AAGAAGGUCAAAUCAAUGAUAUGAUUUUAUCUCUUCUU	-0.253	-0.543	-1.06	0.176
AAGACUCAUCUCUAUGAUGGGUUUU	-0.938	-1.34	-1.46	-0.575
AAGAGAAAGUCAACAUCAAUAUUGUUGGUGACUUUAAACUU	0.608	0.557	-0.494	-0.0741
AAGCUGAUGAGUACGAACUUAUGUACUCAUUCGUUU	-0.634	-0.877	-0.895	-0.284

Sequence	pull-down binding Z-score [1]	pull-down binding Z-score (TO-N3 (biotin conjugate))	pull-down binding Z-score [2]	pull-down binding Z-score [3]
AAGGAGCUGGUGGCCAUAGUUACGGCGCCGAUCUAAAGUCAUUUGACUUAGGCGACGAGCUUGGCACUGAUCCUU [DMSMaPseq_invitro_SARS-CoV-2_Motif_14]	0.0504	0.349	0.492	0.134
AAGGAUGCUACUCCUU	-0.922	-1.32	-1.36	-0.789
AAGGCUGAUGAAACUCAAGCCUU	-0.506	-0.413	-0.106	-0.269
AAGGGAGGGGCGGGUCGGGAA [G4_2A2_NRAS]	8.72	7.02	5.24	11.1
AAGGGGGCCGUGGGGUGGGAGCUGGGGAA [G4_2A2_BCL2]	8.07	6.6	4.88	9.67
AAGGUAAAACCAACAGUGGUUGUUAAUGCAGCCAAUGUUUACCUU [DMSMaPseq_invitro_SARS-CoV-2_Motif_60]	-0.572	-0.792	-0.952	-0.217
AAGGUAAGAGGGAUACUUACCUG [U1snRNP5ss-26]	-0.614	-0.673	-0.262	-0.286
AAGGUACAGCAGAUACUUACCUG [U1snRNP5ss-22]	-0.32	-0.213	0.0449	0.198
AAGUGCUUUUGUUAAUUUAAAACAAUUACCAUUU [SHAPE_invitro_SARS-CoV-2_Motif_354]	-0.729	-0.977	-0.811	-0.225
AAGUUAAUUUUCCUCUGGCUGUUAUGGCCAGUAACUU [SHAPE_invivo_SARS-CoV-2_Motif_506]	-0.74	-1.02	-0.963	-0.439
AAGUUUGUUCGCAUUCAACCAGGACAGACUU [DMSMaPseq_invitro_SARS-CoV-2_Motif_187]	1.1	1.09	-0.349	0.0441
AAUAACUUACCUUUUAAGUUGACAUGUGCAACUACUAGACAAGUUGUU	-0.907	-1.21	-1.52	-0.415
AAUAGAAGAAUUAUUCUAUU [SHAPE_invitro_SARS-CoV-2_Motif_349]	-0.546	-0.867	-1.81	-0.687
AAUAUUGCUUUGCUUGUACAGUAAGUGACAACAGAUGUUUCAUCUCGUUGACUUUCAGGUUACUAUAGCAGAGAUAUU [DMSMaPseq_invitro_SARS-CoV-2_Motif_488]	-0.135	-0.0703	0.237	0.152
AAUCAAAAAGAGUUGAUU [DMSMaPseq_invitro_SARS-CoV-2_Motif_439]	-0.396	-0.416	-1.22	-0.434
AAUCAUACAUCACCAGAUGUUGAUU [SHAPE_invitro_SARS-CoV-2_Motif_454]	-0.503	-0.814	-0.903	-0.477
AAUGAGUUUUACGCAUAUUUGCGUAAACAUU	-0.889	-1.36	-1.23	-0.413
AAUGUAGUAGAAUUAUACCUGCACGUGCUCGUGUAGAGUGUUUUGAUAAAUUCAAAGUGAAUUCAACAUUAGAACAGUAUGUCUUUUGUACUGUAAAUGCAUU	0.059	0.182	-0.209	0.0794
AAUGUUUUAUUCUCUACAGUGUUCCCACUUACAAGUUUUGGACCACUAGUGAGAAAAAUAUU [DMSMaPseq_invitro_SARS-CoV-2_Motif_260]	-0.786	-0.882	-0.866	-0.434
AAUUAUAAAUUACCAGAUGAUUUUACAGGCUGCGUUAUAGCUUGGAAUUCUAACAAUCUUGAUUCUAAGGUUGGUGGUAAUUAUAAUU	-0.932	-0.993	-0.712	-0.123
AAUUAUGAAGAUUUACUCAUUCGUAAGUCUAAUCAUAAUU	-0.0299	-0.429	-0.858	-0.3
AAUUGAUUCUUACUUUGUAGUUAAGAGACACACUUUCUCUAACUACCAACAUGAAGAAACAAUU	0.502	0.281	-0.614	0.0491
ACAACAACCAUAAAACCAGUUACUUAUAAAUUGGAUGGUGUUGU	-0.686	-1.03	-1.37	-0.38
